In publication PMC11297201:

Biological target: β-arrestin2 (UniProt P32121)
Test: BRET, MOR-Nluc and β-arrestin2-Venus
Settings: for other: Emax, vehicle-subtracted BRET ratio: reference: vehicle

mu-opioid receptor (MOR, mMOR) (from UniProt P42866) DAMGO, 10 min
other: Emax, vehicle-subtracted BRET ratio (sites T370,S375,T376,T379): 0.07 BRET ratio

mu-opioid receptor (MOR, mMOR) (from UniProt P42866) morphine
percent of reference (reference: DAMGO, sites T376,T379): weaker; reference 100

mu-opioid receptor (MOR, mMOR) (from UniProt P42866) morphine, 10 min
other: Emax, vehicle-subtracted BRET ratio (sites S375): 0.008 BRET ratio
